According to US20220143024A1, “METHODS OF USING IMIPRIDONES” (Board of Regents, The University of Texas System, priority 2019, published 2022):

Key:
Assay in all cases: BioID-MS
AARS2 (human) = AARS2 (human) (UniProt Q5JTZ9)
ABAT (human) = ABAT (human) (UniProt P80404)
ACAD10 (human) = ACAD10 (human) (UniProt Q6JQN1)
ACADVL (human) = ACADVL (human) (UniProt P49748)
ACSS1 (human) = ACSS1 (human) (UniProt Q9NUB1)
AFG3L2 (human) = AFG3L2 (human) (UniProt Q9Y4W6)
AK3 (human) = AK3 (human) (UniProt Q9UIJ7)
ALDH4A1 (human) = ALDH4A1 (human) (UniProt P30038)
ARG2 (human) = ARG2 (human) (UniProt P78540)
Sequence of ARG2 (human) (P78540 23-354 limits assumed): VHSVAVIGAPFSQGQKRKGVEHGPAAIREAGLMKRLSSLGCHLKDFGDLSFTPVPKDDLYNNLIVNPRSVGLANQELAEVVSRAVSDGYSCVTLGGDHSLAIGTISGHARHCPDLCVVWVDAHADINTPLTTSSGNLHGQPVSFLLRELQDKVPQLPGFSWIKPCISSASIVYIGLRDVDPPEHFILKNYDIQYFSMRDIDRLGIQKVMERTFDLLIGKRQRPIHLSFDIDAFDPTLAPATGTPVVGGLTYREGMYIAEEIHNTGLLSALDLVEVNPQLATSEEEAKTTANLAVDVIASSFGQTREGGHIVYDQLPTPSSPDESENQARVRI

C12orf10 (human) = C12orf10 (human) (UniProt Q9HB07)
CDK5RAP1 (human) = CDK5RAP1 (human) (UniProt Q96SZ6)
CHCHD3 (human) = CHCHD3 (human) (UniProt Q9NX63)
EFHA1 (human) = EFHA1 (human) (UniProt Q8IYU8)
FASTKD5 (human) = FASTKD5 (human) (UniProt Q7L8L6)
FECH (human) = FECH (human) (UniProt P22830)
FOXRED1 (human) = FOXRED1 (human) (UniProt Q96CU9)
GATC (human) = GATC (human) (UniProt O43716)
Sequence of GATC (human) (O43716 58-136 limits assumed): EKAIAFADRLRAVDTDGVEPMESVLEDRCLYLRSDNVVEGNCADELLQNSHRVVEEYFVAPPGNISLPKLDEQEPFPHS

GLRX5 (human) = GLRX5 (human) (UniProt Q86SX6)
GLUD1 (human) = GLUD1 (human) (UniProt P00367)
GTPBP10 (human) = GTPBP10 (human) (UniProt A4D1E9)
GUF1 (human) = GUF1 (human) (UniProt Q8N442)
HARS2 (human) = HARS2 (human) (UniProt P49590)
IARS2 (human) = IARS2 (human) (UniProt Q9NSE4)
IBA57 (human) = IBA57 (human) (UniProt Q5T440)
Sequence of IBA57 (human) (Q5T440 40-356 limits assumed): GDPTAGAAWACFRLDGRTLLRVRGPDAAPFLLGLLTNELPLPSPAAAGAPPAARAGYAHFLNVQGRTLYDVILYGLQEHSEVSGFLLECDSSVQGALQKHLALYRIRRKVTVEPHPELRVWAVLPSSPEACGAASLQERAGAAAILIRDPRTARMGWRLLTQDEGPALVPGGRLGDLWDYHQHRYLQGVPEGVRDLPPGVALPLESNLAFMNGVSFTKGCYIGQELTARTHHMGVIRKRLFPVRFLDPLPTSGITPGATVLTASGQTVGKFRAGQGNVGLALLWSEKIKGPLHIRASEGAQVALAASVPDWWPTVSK

IDH3A (human) = IDH3A (human) (UniProt P50213)
Sequence of IDH3A (human) (P50213 28-366 limits assumed): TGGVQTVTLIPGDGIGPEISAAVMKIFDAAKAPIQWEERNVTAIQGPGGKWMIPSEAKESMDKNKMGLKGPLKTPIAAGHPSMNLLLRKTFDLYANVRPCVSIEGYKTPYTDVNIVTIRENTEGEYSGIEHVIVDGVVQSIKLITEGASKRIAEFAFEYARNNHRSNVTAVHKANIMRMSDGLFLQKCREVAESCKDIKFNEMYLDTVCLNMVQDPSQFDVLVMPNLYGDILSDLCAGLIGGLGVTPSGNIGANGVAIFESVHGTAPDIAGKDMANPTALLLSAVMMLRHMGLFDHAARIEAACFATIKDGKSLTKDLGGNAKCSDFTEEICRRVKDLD

LARS2 (human) = LARS2 (human) (UniProt Q15031)
Sequence of LARS2 (human) (Q15031 whole entry): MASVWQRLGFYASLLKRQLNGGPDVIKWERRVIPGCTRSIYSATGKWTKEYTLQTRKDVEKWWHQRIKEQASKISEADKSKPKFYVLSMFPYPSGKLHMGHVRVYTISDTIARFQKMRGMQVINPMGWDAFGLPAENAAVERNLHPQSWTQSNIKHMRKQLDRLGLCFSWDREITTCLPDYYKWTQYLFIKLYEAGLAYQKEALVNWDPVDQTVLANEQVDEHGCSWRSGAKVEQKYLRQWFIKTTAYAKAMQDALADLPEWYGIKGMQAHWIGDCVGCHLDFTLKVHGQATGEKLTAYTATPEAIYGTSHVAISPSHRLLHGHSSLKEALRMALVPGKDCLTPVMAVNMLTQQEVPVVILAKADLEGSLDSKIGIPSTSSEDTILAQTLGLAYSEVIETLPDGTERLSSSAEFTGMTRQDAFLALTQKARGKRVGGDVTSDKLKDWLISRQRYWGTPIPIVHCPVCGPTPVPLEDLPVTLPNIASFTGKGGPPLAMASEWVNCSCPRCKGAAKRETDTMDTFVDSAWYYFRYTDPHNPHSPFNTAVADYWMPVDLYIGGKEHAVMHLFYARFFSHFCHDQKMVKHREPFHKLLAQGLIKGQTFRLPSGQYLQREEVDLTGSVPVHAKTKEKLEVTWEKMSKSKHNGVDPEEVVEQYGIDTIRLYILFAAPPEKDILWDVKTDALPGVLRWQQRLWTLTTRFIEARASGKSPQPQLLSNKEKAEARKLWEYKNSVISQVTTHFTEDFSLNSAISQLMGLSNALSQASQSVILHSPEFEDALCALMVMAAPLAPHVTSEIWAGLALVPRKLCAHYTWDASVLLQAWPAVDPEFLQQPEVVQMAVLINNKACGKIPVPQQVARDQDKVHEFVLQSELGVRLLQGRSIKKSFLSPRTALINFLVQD

MDH2 (human) = MDH2 (human) (UniProt P40926)
MRPL10 (human) = MRPL10 (human) (UniProt Q7Z7H8)
MRPL21 (human) = MRPL21 (human) (UniProt Q7Z2W9)
MRPL40 (human) = MRPL40 (human) (UniProt Q9NQ50)
MRPL44 (human) = MRPL44 (human) (UniProt Q9H9J2)
MRPL45 (human) = MRPL45 (human) (UniProt Q9BRJ2)
MRPL48 (human) = MRPL48 (human) (UniProt Q96GC5)
MRPS28 (human) = MRPS28 (human) (UniProt Q9Y2Q9)
MRPS36 (human) = MRPS36 (human) (UniProt P82909)
Sequence of MRPS36 (human) (P82909 whole entry): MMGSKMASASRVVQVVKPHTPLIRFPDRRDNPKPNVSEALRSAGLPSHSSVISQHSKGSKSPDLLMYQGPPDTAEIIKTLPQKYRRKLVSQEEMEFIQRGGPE

MRPS6 (human) = MRPS6 (human) (UniProt P82932)
MRRF (human) = MRRF (human) (UniProt Q96E11)
NADKD1 (human) = NADKD1 (human) (UniProt Q4G0N4)
NDUFA2 (human) = NDUFA2 (human) (UniProt O43678)
Sequence of NDUFA2 (human) (O43678 2-99 limits assumed): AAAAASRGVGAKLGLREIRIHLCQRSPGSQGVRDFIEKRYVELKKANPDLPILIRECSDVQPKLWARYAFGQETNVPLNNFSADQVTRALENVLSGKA

NDUFAF1 (human) = NDUFAF1 (human) (UniProt Q9Y375)
Sequence of NDUFAF1 (human) (Q9Y375 25-327 limits assumed): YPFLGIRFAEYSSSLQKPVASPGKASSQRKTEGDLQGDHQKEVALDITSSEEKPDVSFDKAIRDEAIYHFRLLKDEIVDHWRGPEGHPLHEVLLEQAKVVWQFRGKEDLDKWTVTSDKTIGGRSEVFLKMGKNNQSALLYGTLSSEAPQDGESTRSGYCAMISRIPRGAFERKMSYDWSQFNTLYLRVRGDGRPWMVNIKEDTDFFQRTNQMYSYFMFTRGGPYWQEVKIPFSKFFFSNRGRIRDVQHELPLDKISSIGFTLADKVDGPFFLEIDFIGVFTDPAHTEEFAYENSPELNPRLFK

NDUFAF4 (human) = NDUFAF4 (human) (UniProt Q9P032)
Sequence of NDUFAF4 (human) (Q9P032 2-175 limits assumed): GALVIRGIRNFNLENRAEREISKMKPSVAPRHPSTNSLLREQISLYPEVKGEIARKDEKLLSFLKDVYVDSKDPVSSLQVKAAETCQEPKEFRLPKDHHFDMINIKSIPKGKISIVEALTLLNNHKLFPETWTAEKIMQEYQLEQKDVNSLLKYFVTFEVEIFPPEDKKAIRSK

NDUFAF5 (human) = NDUFAF5 (human) (UniProt Q5TEU4)
NDUFS4 (human) = NDUFS4 (human) (UniProt O43181)
NDUFS7 (human) = NDUFS7 (human) (UniProt O75251)
NDUFV2 (human) = NDUFV2 (human) (UniProt P19404)
NFS1 (human) = NFS1 (human) (UniProt Q9Y697)
NIPSNAP1 (human) = NIPSNAP1 (human) (UniProt Q9BPW8)
Sequence of NIPSNAP1 (human) (Q9BPW8 36-284 limits assumed): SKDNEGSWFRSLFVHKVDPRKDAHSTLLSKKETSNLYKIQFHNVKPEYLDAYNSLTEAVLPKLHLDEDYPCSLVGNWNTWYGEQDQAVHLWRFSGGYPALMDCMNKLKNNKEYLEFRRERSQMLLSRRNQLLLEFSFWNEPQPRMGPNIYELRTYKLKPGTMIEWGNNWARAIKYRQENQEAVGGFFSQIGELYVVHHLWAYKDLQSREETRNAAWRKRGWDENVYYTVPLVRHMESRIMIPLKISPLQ

NME4 (human) = NME4 (human) (UniProt O00746)
OGDH (human) = OGDH (human) (UniProt Q02218)
Sequence of OGDH (human) (Q02218 41-1023 limits assumed): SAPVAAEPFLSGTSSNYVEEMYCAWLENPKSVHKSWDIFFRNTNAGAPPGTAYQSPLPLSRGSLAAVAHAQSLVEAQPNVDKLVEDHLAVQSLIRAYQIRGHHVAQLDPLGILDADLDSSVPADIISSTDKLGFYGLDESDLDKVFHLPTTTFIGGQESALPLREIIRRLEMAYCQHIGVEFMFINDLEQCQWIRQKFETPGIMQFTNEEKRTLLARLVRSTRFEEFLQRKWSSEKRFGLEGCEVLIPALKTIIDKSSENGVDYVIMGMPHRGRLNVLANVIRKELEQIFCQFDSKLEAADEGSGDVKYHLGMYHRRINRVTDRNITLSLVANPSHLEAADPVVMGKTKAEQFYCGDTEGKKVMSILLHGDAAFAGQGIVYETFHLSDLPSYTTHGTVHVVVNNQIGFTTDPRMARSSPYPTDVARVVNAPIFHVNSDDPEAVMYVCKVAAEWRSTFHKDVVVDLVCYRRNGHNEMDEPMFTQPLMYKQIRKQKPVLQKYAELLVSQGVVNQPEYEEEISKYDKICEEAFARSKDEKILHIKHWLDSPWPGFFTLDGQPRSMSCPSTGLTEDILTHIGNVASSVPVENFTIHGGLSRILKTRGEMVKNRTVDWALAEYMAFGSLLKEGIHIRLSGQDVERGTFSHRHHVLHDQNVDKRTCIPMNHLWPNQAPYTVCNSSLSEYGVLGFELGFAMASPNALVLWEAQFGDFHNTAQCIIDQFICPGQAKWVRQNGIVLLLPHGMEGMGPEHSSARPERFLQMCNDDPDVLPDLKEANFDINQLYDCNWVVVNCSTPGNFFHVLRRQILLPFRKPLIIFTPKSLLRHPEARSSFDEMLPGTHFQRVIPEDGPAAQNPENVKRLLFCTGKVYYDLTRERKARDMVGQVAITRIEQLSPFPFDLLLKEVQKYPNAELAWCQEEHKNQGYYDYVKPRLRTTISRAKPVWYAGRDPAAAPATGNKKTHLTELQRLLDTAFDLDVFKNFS

PITRM1 (human) = PITRM1 (human) (UniProt Q5JRX3)
PPIF (human) = PPIF (human) (UniProt P30405)
RG9MTD1 (human) = RG9MTD1 (human) (UniProt Q7L0Y3)
SDHB (human) = SDHB (human) (UniProt P21912)
Sequence of SDHB (human) (P21912 29-280 limits assumed): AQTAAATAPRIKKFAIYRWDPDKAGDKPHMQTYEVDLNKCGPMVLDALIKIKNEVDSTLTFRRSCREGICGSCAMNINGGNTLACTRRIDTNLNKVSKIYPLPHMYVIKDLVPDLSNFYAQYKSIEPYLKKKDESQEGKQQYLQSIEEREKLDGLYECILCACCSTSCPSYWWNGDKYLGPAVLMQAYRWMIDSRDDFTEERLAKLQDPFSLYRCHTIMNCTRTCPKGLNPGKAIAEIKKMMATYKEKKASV

SPRYD4 (human) = SPRYD4 (human) (UniProt Q8WW59)
SUPV3L1 (human) = SUPV3L1 (human) (UniProt Q8IYB8)
Sequence of SUPV3L1 (human) (Q8IYB8 23-786 limits assumed): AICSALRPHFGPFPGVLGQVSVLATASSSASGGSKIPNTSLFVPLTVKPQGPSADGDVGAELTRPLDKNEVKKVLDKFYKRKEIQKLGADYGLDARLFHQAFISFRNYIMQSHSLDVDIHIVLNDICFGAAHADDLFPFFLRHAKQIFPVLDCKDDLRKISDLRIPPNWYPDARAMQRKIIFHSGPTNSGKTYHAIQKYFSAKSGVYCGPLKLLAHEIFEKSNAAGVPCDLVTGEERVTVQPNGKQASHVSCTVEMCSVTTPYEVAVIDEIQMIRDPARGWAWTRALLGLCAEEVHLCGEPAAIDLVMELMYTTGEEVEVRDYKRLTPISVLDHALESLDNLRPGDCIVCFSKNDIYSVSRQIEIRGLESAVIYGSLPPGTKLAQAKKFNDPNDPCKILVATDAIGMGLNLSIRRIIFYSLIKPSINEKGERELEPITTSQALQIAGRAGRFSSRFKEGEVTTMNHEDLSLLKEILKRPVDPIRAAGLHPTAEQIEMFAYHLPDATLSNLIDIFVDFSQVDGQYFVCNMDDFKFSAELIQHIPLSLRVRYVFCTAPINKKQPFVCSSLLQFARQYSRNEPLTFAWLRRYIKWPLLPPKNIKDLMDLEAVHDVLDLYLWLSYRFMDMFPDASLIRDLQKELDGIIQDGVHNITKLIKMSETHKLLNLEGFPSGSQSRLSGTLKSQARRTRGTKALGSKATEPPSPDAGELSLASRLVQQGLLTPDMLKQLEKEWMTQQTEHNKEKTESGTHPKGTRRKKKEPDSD

TAC01 (human) = TAC01 (human) (UniProt Q9BSH4)
VARS2 (human) = VARS2 (human) (UniProt Q5ST30)
XPNPEP3 (human) = XPNPEP3 (human) (UniProt Q9NQH7)

Substance: FlagBirA-ClpP (Y118A) (from UniProt P06709 1-321; Q16740 57-277) (enzyme)
- Log2 Fold change (vs control) (AARS2 (human)): -0.14 log2
- Log2 Fold change (vs control) (ABAT (human)): -3.58 log2
- Log2 Fold change (vs control) (ACAD10 (human)): -4.09 log2
- Log2 Fold change (vs control) (ACADVL (human)): 0.28 log2
- Log2 Fold change (vs control) (ACSS1 (human)): -1.46 log2
- Log2 Fold change (vs control) (AFG3L2 (human)): 0.43 log2
- Log2 Fold change (vs control) (AK3 (human)): -0.28 log2
- Log2 Fold change (vs control) (ALDH4A1 (human)): -0.81 log2
- Log2 Fold change (vs control) (ARG2 (human)): 0.78 log2
- Log2 Fold change (vs control) (C12orf10 (human)): -3.75 log2
- Log2 Fold change (vs control) (CDK5RAP1 (human)): -0.26 log2
- Log2 Fold change (vs control) (CHCHD3 (human)): -2.46 log2
- Log2 Fold change (vs control) (EFHA1 (human)): -4.17 log2
- Log2 Fold change (vs control) (FASTKD5 (human)): 1.05 log2
- Log2 Fold change (vs control) (FECH (human)): -0.68 log2
- Log2 Fold change (vs control) (FOXRED1 (human)): -4.09 log2
- Log2 Fold change (vs control) (GATC (human)): -0.05 log2
- Log2 Fold change (vs control) (GLRX5 (human)): -0.26 log2
- Log2 Fold change (vs control) (GLUD1 (human)): -0.39 log2
- Log2 Fold change (vs control) (GTPBP10 (human)): -0.91 log2
- Log2 Fold change (vs control) (GUF1 (human)): 0.38 log2
- Log2 Fold change (vs control) (HARS2 (human)): -0.49 log2
- Log2 Fold change (vs control) (IARS2 (human)): 0.43 log2
- Log2 Fold change (vs control) (IBA57 (human)): 1.65 log2
- Log2 Fold change (vs control) (IDH3A (human)): -0.06 log2
- Log2 Fold change (vs control) (LARS2 (human)): 0.1 log2
- Log2 Fold change (vs control) (MDH2 (human)): -0.03 log2
- Log2 Fold change (vs control) (MRPL10 (human)): -0.21 log2
- Log2 Fold change (vs control) (MRPL21 (human)): -0.72 log2
- Log2 Fold change (vs control) (MRPL40 (human)): 0.37 log2
- Log2 Fold change (vs control) (MRPL44 (human)): 1.13 log2
- Log2 Fold change (vs control) (MRPL45 (human)): -0.29 log2
- Log2 Fold change (vs control) (MRPL48 (human)): 0.15 log2
- Log2 Fold change (vs control) (MRPS28 (human)): -0.49 log2
- Log2 Fold change (vs control) (MRPS36 (human)): 0.11 log2
- Log2 Fold change (vs control) (MRPS6 (human)): -0.62 log2
- Log2 Fold change (vs control) (MRRF (human)): -0.1 log2
- Log2 Fold change (vs control) (NADKD1 (human)): -1.04 log2
- Log2 Fold change (vs control) (NDUFA2 (human)): -0.23 log2
- Log2 Fold change (vs control) (NDUFAF1 (human)): -4.32 log2
- Log2 Fold change (vs control) (NDUFAF4 (human)): 1.06 log2
- Log2 Fold change (vs control) (NDUFAF5 (human)): -0.47 log2
- Log2 Fold change (vs control) (NDUFS4 (human)): -0.57 log2
- Log2 Fold change (vs control) (NDUFS7 (human)): -0.08 log2
- Log2 Fold change (vs control) (NDUFV2 (human)): -0.47 log2
- Log2 Fold change (vs control) (NFS1 (human)): 0.25 log2
- Log2 Fold change (vs control) (NIPSNAP1 (human)): 0.11 log2
- Log2 Fold change (vs control) (NME4 (human)): -0.42 log2
- Log2 Fold change (vs control) (OGDH (human)): 1.67 log2
- Log2 Fold change (vs control) (PITRM1 (human)): -0.16 log2
- Log2 Fold change (vs control) (PPIF (human)): 0.09 log2
- Log2 Fold change (vs control) (RG9MTD1 (human)): 0.47 log2
- Log2 Fold change (vs control) (SDHB (human)): -0.6 log2
- Log2 Fold change (vs control) (SPRYD4 (human)): 0.22 log2
- Log2 Fold change (vs control) (SUPV3L1 (human)): 0.56 log2
- Log2 Fold change (vs control) (TAC01 (human)): 0.07 log2
- Log2 Fold change (vs control) (VARS2 (human)): 0.76 log2
- Log2 Fold change (vs control) (XPNPEP3 (human)): -0.31 log2
